One assay addresses GST-TcdB-C(1500-2366) (Clostridium difficile, UniProt P18177 1500-2366). In words: pull-down.
For assay [1], the target named is Clostridium difficile toxin B, His-tagged (TcdB-His) (Clostridium difficile, UniProt P18177 1-2366). In words: SPR. A general note: SPR reads the build-up and loss of mass on a sensor chip optically.
Chain of Clostridium difficile toxin B, His-tagged (TcdB-His) (P18177 whole entry): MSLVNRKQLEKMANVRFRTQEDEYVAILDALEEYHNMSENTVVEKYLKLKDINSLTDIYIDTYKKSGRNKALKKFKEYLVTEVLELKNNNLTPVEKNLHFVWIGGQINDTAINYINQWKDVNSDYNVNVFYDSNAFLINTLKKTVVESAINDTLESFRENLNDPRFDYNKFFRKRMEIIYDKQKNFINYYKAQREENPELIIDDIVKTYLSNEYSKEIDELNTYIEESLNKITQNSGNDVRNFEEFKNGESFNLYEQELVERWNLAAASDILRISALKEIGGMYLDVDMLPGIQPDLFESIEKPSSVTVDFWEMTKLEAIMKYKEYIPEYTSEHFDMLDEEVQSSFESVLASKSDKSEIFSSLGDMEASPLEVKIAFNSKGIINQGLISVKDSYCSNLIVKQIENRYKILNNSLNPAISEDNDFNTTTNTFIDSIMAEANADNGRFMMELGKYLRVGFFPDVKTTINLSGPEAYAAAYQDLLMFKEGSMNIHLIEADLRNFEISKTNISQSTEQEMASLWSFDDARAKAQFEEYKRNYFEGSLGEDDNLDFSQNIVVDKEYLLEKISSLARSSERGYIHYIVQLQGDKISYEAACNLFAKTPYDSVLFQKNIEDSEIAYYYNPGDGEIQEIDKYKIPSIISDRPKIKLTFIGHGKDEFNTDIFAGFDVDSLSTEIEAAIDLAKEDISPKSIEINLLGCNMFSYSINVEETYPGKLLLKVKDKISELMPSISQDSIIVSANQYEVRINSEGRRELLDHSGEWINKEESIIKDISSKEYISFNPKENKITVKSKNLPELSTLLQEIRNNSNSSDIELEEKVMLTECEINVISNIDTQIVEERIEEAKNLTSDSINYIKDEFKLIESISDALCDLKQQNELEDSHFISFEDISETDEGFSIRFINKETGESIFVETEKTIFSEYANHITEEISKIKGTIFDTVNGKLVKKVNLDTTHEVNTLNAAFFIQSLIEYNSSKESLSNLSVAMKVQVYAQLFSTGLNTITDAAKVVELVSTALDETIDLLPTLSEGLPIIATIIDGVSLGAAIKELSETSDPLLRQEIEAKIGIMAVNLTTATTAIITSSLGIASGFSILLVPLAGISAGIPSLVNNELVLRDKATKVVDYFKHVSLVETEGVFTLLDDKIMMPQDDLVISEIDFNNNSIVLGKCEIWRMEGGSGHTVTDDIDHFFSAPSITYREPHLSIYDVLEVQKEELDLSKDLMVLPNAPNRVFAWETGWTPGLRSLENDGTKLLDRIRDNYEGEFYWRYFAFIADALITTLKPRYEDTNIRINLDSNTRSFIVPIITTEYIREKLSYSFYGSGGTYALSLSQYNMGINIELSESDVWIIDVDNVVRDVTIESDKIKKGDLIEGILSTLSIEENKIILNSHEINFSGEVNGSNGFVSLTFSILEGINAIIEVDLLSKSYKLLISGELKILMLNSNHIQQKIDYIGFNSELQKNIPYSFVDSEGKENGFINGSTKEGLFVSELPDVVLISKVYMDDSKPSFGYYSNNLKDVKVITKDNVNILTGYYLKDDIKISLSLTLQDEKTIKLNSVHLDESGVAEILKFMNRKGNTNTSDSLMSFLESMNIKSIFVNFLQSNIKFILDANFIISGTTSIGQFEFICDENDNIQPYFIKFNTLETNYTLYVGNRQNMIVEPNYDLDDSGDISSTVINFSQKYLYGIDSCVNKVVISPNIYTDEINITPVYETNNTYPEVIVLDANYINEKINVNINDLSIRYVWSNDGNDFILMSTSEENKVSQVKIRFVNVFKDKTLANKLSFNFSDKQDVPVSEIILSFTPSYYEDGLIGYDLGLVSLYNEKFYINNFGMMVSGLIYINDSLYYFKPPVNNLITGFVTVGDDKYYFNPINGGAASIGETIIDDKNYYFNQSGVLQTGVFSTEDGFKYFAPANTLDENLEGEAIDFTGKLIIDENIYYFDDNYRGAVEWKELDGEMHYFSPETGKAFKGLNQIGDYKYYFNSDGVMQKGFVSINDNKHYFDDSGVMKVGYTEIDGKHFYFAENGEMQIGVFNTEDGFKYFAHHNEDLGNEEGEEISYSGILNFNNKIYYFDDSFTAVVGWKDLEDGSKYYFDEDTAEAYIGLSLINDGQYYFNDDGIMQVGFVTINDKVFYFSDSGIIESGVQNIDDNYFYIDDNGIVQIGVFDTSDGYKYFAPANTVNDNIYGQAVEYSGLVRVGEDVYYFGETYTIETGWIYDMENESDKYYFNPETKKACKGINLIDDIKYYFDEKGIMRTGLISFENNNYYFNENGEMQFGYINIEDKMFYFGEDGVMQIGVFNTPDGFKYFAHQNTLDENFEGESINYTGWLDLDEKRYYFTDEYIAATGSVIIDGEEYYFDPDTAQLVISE

Chain of GST-TcdB-C(1500-2366) (P18177 1500-2366): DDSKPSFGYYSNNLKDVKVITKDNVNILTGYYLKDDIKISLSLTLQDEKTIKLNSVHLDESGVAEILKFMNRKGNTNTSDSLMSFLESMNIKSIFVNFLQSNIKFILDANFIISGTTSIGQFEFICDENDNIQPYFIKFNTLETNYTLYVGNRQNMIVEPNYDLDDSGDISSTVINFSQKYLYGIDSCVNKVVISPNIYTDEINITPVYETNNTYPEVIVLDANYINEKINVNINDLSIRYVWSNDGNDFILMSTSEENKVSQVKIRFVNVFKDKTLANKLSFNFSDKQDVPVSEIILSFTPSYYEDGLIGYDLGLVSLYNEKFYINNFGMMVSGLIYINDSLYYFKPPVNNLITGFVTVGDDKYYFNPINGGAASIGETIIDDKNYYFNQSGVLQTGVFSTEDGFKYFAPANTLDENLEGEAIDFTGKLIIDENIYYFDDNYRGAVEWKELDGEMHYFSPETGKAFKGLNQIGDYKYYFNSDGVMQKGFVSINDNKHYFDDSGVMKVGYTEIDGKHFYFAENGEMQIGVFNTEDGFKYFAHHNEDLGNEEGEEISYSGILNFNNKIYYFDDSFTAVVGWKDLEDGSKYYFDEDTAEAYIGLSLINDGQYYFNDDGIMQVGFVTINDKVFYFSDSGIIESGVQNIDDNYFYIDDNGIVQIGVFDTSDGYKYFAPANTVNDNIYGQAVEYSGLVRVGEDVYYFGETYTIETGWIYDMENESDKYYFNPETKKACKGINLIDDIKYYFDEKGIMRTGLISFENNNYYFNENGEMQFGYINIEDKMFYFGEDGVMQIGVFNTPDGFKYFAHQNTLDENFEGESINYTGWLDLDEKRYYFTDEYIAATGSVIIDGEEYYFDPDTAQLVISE

B1: CSPG4-N(30-640)-Fc (Fc fusion)
chain: ASFFGENHLEVPVATALTDIDLQLQFSTSQPEALLLLAAGPADHLLLQLYSGRLQVRLVLGQEELRLQTPAETLLSDSIPHTVVLTVVEGWATLSVDGFLNASSAVPGAPLEVPYGLFVGGTGTLGLPYLRGTSRPLRGCLHAATLNGRSLLRPLTPDVHEGCAEEFSASDDVALGFSGPHSLAAFPAWGTQDEGTLEFTLTTQSRQAPLAFQAGGRRGDFIYVDIFEGHLRAVVEKGQGTVLLHNSVPVADGQPHEVSVHINAHRLEISVDQYPTHTSNRGVLSYLEPRGSLLLGGLDAEASRHLQEHRLGLTPEATNASLLGCMEDLSVNGQRRGLREALLTRNMAAGCRLEEEEYEDDAYGHYEAFSTLAPEAWPAMELPEPCVPEPGLPPVFANFTQLLTISPLVVAEGGTAWLEWRHVQPTLDLMEAELRKSQVLFSVTRGARHGELELDIPGAQARKMFTLLDVVNRKARFIHDGSEDTSDQLVLEVSVTARVPMPSCLRRGQTYLLPIQVNPVNDPPHIIFPHGSLMVILEHTQKPLGPEVFQAYDPDSACEGLTFQVLGTSSGLPVERRDQPGEPATEFSCRELEAGSLVYVHRGGPAQDLTF
Turning to B1, the binding result in the assay with GST-TcdB-C(1500-2366) is listed as “binds”.

B2: CSPG4-N(401-560)-Fc (Fc fusion)
chain: LAPEAWPAMELPEPCVPEPGLPPVFANFTQLLTISPLVVAEGGTAWLEWRHVQPTLDLMEAELRKSQVLFSVTRGARHGELELDIPGAQARKMFTLLDVVNRKARFIHDGSEDTSDQLVLEVSVTARVPMPSCLRRGQTYLLPIQVNPVNDPPHIIFPHG
In turn, B2 came in with a Kd in assay [1] of 28.9 ± 0.7 nM.

For orientation: Kd means a measure of binding affinity in units of concentration.

Source of the values: PMC4650570 (Cell Research, 2014).
